Several values for one entry are separate records, joined by “and”; a condition that tells them apart may be missing. Equal entries are not always repeated.
What was measured:
[1] = molecular target: T1, canine FcRn (UniProtKB-E2ROL6 [FcRn] and UniProtKB-E2RN10 [canine beta-2-microglobulin]) (canine); assay: SPR Biacore 8K, pH 5.5, Fc captured on BSA via SASA tag, FcRn 200 nM
T1 construct: Soluble analyte injected in SPR

[2] = molecular target: T1, canine FcRn (UniProtKB-E2ROL6 [FcRn] …); assay: SPR Biacore 8K, pH 5.5, Fc captured on BSA via SASA tag, FcRn 400 nM
[3] = molecular target: T1, canine FcRn (UniProtKB-E2ROL6 [FcRn] …); assay: SPR Biacore 8K, pH 5.5, Fc captured on BSA via SASA tag, FcRn 200 nM; remark: listed apart in the source
[4] = molecular target: T1, canine FcRn (UniProtKB-E2ROL6 [FcRn] …); assay: as above; remark: listed apart in the source
[5] = molecular target: T1, canine FcRn (UniProtKB-E2ROL6 [FcRn] …); assay: SPR Biacore 8K, pH 5.5, Fc captured on BSA via SASA tag, FcRn 100-800 nM
[6] = molecular target: T1, canine FcRn (UniProtKB-E2ROL6 [FcRn] …); assay: SPR Biacore 8K, pH 5.5, Fc captured on BSA via SASA tag, FcRn 200 nM; remark: listed apart in the source
[7] = molecular target: T1, canine FcRn (UniProtKB-E2ROL6 [FcRn] …); assay: as above; remark: listed apart in the source
[8] = molecular target: T1, canine FcRn (UniProtKB-E2ROL6 [FcRn] …); assay: as above; remark: listed apart in the source
[9] = molecular target: T1, canine FcRn (UniProtKB-E2ROL6 [FcRn] …); assay: as above; remark: listed apart in the source
[10] = molecular target: T1, canine FcRn (UniProtKB-E2ROL6 [FcRn] …); assay: as above; remark: listed apart in the source

B1: canine IgG.B Fc (CH2-CH3) variant E380A (Fc fusion)
chain: APEMLGGPSVFIFPPKPKDTLLIARTPEVTCVVVDLDPEDPEVQISWFVDGKQMQTAKTQPREEQFNGTYRVVSVLPIGHQDWLKGKQFTCKVNNKALPSPIERTISKARGQAHQPSVYVLPPSREELSKNTVSLTCLIKDFFPPDIDVAWQSNGQQEPESKYRTTPPQLDEDGSYFLYSKLSVDKSRWQRGDTFICAVMHEALHNHYTQESLSHSPGK
Kd [1]: 1320 nM and 1570 nM
koff [1]: 0.223 s⁻¹ and 0.239 s⁻¹
kon [1]: 168000 M⁻¹ s⁻¹ and 152000 M⁻¹ s⁻¹
Kd [2]: 618 nM and 747 nM
koff [2]: 0.369 s⁻¹ and 0.18 s⁻¹
kon [2]: 598000 M⁻¹ s⁻¹ and 241000 M⁻¹ s⁻¹

B2: canine IgG.B Fc (CH2-CH3) variant T250E (Fc fusion)
chain: APEMLGGPSVFIFPPKPKDELLIARTPEVTCVVVDLDPEDPEVQISWFVDGKQMQTAKTQPREEQFNGTYRVVSVLPIGHQDWLKGKQFTCKVNNKALPSPIERTISKARGQAHQPSVYVLPPSREELSKNTVSLTCLIKDFFPPDIDVEWQSNGQQEPESKYRTTPPQLDEDGSYFLYSKLSVDKSRWQRGDTFICAVMHEALHNHYTQESLSHSPGK
Kd [3]: 2480 nM and 1660 nM
koff [3]: 0.284 s⁻¹ and 0.287 s⁻¹
kon [3]: 114000 M⁻¹ s⁻¹ and 172000 M⁻¹ s⁻¹

B3: canine IgG.B Fc (CH2-CH3) variant Q311V (Fc fusion)
chain: APEMLGGPSVFIFPPKPKDTLLIARTPEVTCVVVDLDPEDPEVQISWFVDGKQMQTAKTQPREEQFNGTYRVVSVLPIGHVDWLKGKQFTCKVNNKALPSPIERTISKARGQAHQPSVYVLPPSREELSKNTVSLTCLIKDFFPPDIDVEWQSNGQQEPESKYRTTPPQLDEDGSYFLYSKLSVDKSRWQRGDTFICAVMHEALHNHYTQESLSHSPGK
Kd [4]: 372 nM and 439 nM
koff [4]: 0.566 s⁻¹ and 0.696 s⁻¹
kon [4]: 1.52e+06 M⁻¹ s⁻¹ and 1.59e+06 M⁻¹ s⁻¹

B4: canine IgG.B Fc (CH2-CH3) variant T250Q (Fc fusion)
chain: APEMLGGPSVFIFPPKPKDQLLIARTPEVTCVVVDLDPEDPEVQISWFVDGKQMQTAKTQPREEQFNGTYRVVSVLPIGHQDWLKGKQFTCKVNNKALPSPIERTISKARGQAHQPSVYVLPPSREELSKNTVSLTCLIKDFFPPDIDVEWQSNGQQEPESKYRTTPPQLDEDGSYFLYSKLSVDKSRWQRGDTFICAVMHEALHNHYTQESLSHSPGK
Kd [3]: 2590 nM and 2840 nM
koff [3]: 0.258 s⁻¹ and 0.268 s⁻¹
kon [3]: 99600 M⁻¹ s⁻¹ and 94300 M⁻¹ s⁻¹

B5: canine IgG.B Fc (CH2-CH3) variant N434R (Fc fusion)
chain: APEMLGGPSVFIFPPKPKDTLLIARTPEVTCVVVDLDPEDPEVQISWFVDGKQMQTAKTQPREEQFNGTYRVVSVLPIGHQDWLKGKQFTCKVNNKALPSPIERTISKARGQAHQPSVYVLPPSREELSKNTVSLTCLIKDFFPPDIDVEWQSNGQQEPESKYRTTPPQLDEDGSYFLYSKLSVDKSRWQRGDTFICAVMHEALHRHYTQESLSHSPGK
Kd [5]: 182 nM
koff [5]: 0.0801 s⁻¹
kon [5]: 440000 M⁻¹ s⁻¹
Kd [6]: 107 nM and 159 nM
koff [6]: 0.0524 s⁻¹ and 0.0633 s⁻¹
kon [6]: 488000 M⁻¹ s⁻¹ and 399000 M⁻¹ s⁻¹

B6: canine IgG.B Fc (CH2-CH3) variant G309P (Fc fusion)
chain: APEMLGGPSVFIFPPKPKDTLLIARTPEVTCVVVDLDPEDPEVQISWFVDGKQMQTAKTQPREEQFNGTYRVVSVLPIPHQDWLKGKQFTCKVNNKALPSPIERTISKARGQAHQPSVYVLPPSREELSKNTVSLTCLIKDFFPPDIDVEWQSNGQQEPESKYRTTPPQLDEDGSYFLYSKLSVDKSRWQRGDTFICAVMHEALHNHYTQESLSHSPGK
Kd [7]: 635 nM and 434 nM and 637 nM and 718 nM
koff [7]: 0.239 s⁻¹ and 0.242 s⁻¹ and 0.132 s⁻¹ and 0.145 s⁻¹
kon [7]: 377000 M⁻¹ s⁻¹ and 558000 M⁻¹ s⁻¹ and 207000 M⁻¹ s⁻¹ and 202000 M⁻¹ s⁻¹

B7: canine IgG.B Fc (CH2-CH3) variant L252M (Fc fusion)
chain: APEMLGGPSVFIFPPKPKDTLMIARTPEVTCVVVDLDPEDPEVQISWFVDGKQMQTAKTQPREEQFNGTYRVVSVLPIGHQDWLKGKQFTCKVNNKALPSPIERTISKARGQAHQPSVYVLPPSREELSKNTVSLTCLIKDFFPPDIDVEWQSNGQQEPESKYRTTPPQLDEDGSYFLYSKLSVDKSRWQRGDTFICAVMHEALHNHYTQESLSHSPGK
Kd [8]: 869 nM and 774 nM
koff [8]: 0.168 s⁻¹ and 0.169 s⁻¹
kon [8]: 193000 M⁻¹ s⁻¹ and 218000 M⁻¹ s⁻¹

B8: canine IgG.B Fc (CH2-CH3) variant A254T (Fc fusion)
chain: APEMLGGPSVFIFPPKPKDTLLITRTPEVTCVVVDLDPEDPEVQISWFVDGKQMQTAKTQPREEQFNGTYRVVSVLPIGHQDWLKGKQFTCKVNNKALPSPIERTISKARGQAHQPSVYVLPPSREELSKNTVSLTCLIKDFFPPDIDVEWQSNGQQEPESKYRTTPPQLDEDGSYFLYSKLSVDKSRWQRGDTFICAVMHEALHNHYTQESLSHSPGK
Kd [9]: 2290 nM and 1340 nM
koff [9]: 0.375 s⁻¹ and 0.433 s⁻¹
kon [9]: 163000 M⁻¹ s⁻¹ and 323000 M⁻¹ s⁻¹

B9: canine IgG.B Fc (CH2-CH3) variant D378V (Fc fusion)
chain: APEMLGGPSVFIFPPKPKDTLLIARTPEVTCVVVDLDPEDPEVQISWFVDGKQMQTAKTQPREEQFNGTYRVVSVLPIGHQDWLKGKQFTCKVNNKALPSPIERTISKARGQAHQPSVYVLPPSREELSKNTVSLTCLIKDFFPPDIVVEWQSNGQQEPESKYRTTPPQLDEDGSYFLYSKLSVDKSRWQRGDTFICAVMHEALHNHYTQESLSHSPGK
Kd [10]: 693 nM and 873 nM
koff [10]: 0.159 s⁻¹ and 0.16 s⁻¹
kon [10]: 229000 M⁻¹ s⁻¹ and 184000 M⁻¹ s⁻¹

B10: canine IgG.B Fc (CH2-CH3) variant L252Y (Fc fusion)
chain: APEMLGGPSVFIFPPKPKDTLYIARTPEVTCVVVDLDPEDPEVQISWFVDGKQMQTAKTQPREEQFNGTYRVVSVLPIGHQDWLKGKQFTCKVNNKALPSPIERTISKARGQAHQPSVYVLPPSREELSKNTVSLTCLIKDFFPPDIDVEWQSNGQQEPESKYRTTPPQLDEDGSYFLYSKLSVDKSRWQRGDTFICAVMHEALHNHYTQESLSHSPGK
Kd [5]: 173 nM
koff [5]: 0.0476 s⁻¹
kon [5]: 275000 M⁻¹ s⁻¹
Kd [8]: 98.7 nM and 114 nM
koff [8]: 0.0397 s⁻¹ and 0.041 s⁻¹
kon [8]: 402000 M⁻¹ s⁻¹ and 358000 M⁻¹ s⁻¹

B11: canine IgG.B Fc (CH2-CH3) variant N434W (Fc fusion)
chain: APEMLGGPSVFIFPPKPKDTLLIARTPEVTCVVVDLDPEDPEVQISWFVDGKQMQTAKTQPREEQFNGTYRVVSVLPIGHQDWLKGKQFTCKVNNKALPSPIERTISKARGQAHQPSVYVLPPSREELSKNTVSLTCLIKDFFPPDIDVEWQSNGQQEPESKYRTTPPQLDEDGSYFLYSKLSVDKSRWQRGDTFICAVMHEALHWHYTQESLSHSPGK
Kd [5]: 101 nM
koff [5]: 0.045 s⁻¹
kon [5]: 446000 M⁻¹ s⁻¹
Kd [6]: 40.4 nM and 75.7 nM
